B1: 01C01R2LS His-tagged VHH (VHH)
VHH: QVQLVESGGGLQQAGGSLRLSCAASGRTVTVMTVGWFRQAPGKEREFVAAITMYGERTYYADSVKGRFTISRDNAKNTVDLQMNSLKPEDAAVYYCAARTYVSGIYDRFDDYNYWGQGTQVTVSS
B2: 02G03R3 His-tagged VHH (VHH)
VHH: EVQLVESGGGLVQAGGSLRLSCAASGMPDNIFSIKTMGWYRQAPGKERELVAAITSGGSTNYGDSVKDRFTISRDRIENTVNLEMNNLKPEDTAVYTCHADLTYIRFQDMEYWGKGTQVTVSS
B3: 02B03R3 His-tagged VHH (VHH)
VHH: EVQLVESGGGLVQSGGQLRLSCAASGSIASIRDMAWYRQAPGKQRELVAIFARGGTTHYADSVKGRFTISRDNAKNTVYLQMNSLEPEDTAAYYCNAEVATMFQPGFRDYWGRGTLVTVSS
B4: 01A03R3L His-tagged VHH (VHH)
VHH: EVQLVESGGGLVQPGGQLRLSCAASGSIASVRDMAWYRQAPGKQRGLVAIFARGGTTHYADSVKGRFTISRDNAKNTVYLQMNSLEPEDTAAYYCNAEVATMFQPGFRDYWGRGTLVTVSS
B5: 01C03R3L His-tagged VHH (VHH)
VHH: QVQLVESGGGLVQPGGRLRLSCAASGSIFSIRDMGWYRQAPGKQRELVAIFARGGSTHYADSVKGRFTISRDNAKNTVYLQMNSLEPEDTAAYYCNAEVATMIQPGFRDYWGQGTLVTVSS
B6: 02H04R3 His-tagged VHH (VHH)
VHH: EVQLVESGGGLVQPGGRLRLSCAASGSIFSIRDMGWYRQAPGKQRELVAIFARGGSTHYADSVKGRFTISRDNAKNTVYLQMNSLEPEDTAAYYCNAEVATMIQPGFRDYWGQGTQVTVSS
B7: 01E11R2 His-tagged VHH (VHH)
VHH: QVQLVESGGGLVQTGGSLRLSCAASGLTFSSYTMGWFRQAPGKEREFVAAISWGGASTWYADSVKGRFTISRDNAKTMVYLQMNGLKPEDTAVYYCAKGRNNGYATAVRAYDYWGQGTLVTVSS
B8: 01C02R3LS His-tagged VHH (VHH)
VHH: QVQLVESGGGLVQAGDSLRLSCAASGRTRTTYGMGWFRQAPGKEREFVTTITWSGSTNYKYYADSVKGRFTISRDNAKNTVYLQMNSLKPDDTAVYYCAASTVLTDPRVPTEYDYWGQGTQVTVSS
B9: 01B10R3L His-tagged VHH (VHH)
VHH: QVQLVESGGGLVQAGDSLRLSCAASGRTFTTYVMGWFRQPPGKEREFVATISWSGSTTYKYYADSVKGRFTISRDNAKNTVYLQMNSLKPEDTAVYYCAASTVVADPRAPNEYDYWGQGTQVTVSS
B10: 01H11R2LS His-tagged VHH (VHH)
VHH: EVQLVESGGGLVQAGDSLRLSCAASGRTLTTYGMGWFRQAPGKEREFVATIKWSGSTNYKYYADSVKGRFTISRDNAKNTVYLQMNSLKPEDTAVYYCAAGTVLGDPRVLNEYDYWGQGTLVTVSS
B11: 02E01R3LS His-tagged VHH (VHH)
VHH: QVQLVESGGGLVQAGDSLRLSCAASGRTFTTYGMGWFRQAPGKEREFVTTITWSGSTNYKYYADSVKGRFTISRDNAKNTVYLQMNSLKPDDTAVYYCAASTVLRDPRVPTEYDYWGQGTQVTVSS
B12: 01H06R3L His-tagged VHH (VHH)
VHH: EVQLVESGGGLVQAGDSLRLSCAASGRTRTTYGMGWFRQAPGKEREFVTTITWSGPTNYKYYADSVKGRFTISRDNAKNTAYLQMNSLKPDDTAVYYCAASTVLTDPRVPTEYDYWGQGTQVTVSS
B13: 01C08R2L His-tagged VHH (VHH)
VHH: EVQLVESGGGLVQAGDSLRLSCAASGRTFTTYGVGWFRQAPGKEREFVTTITWSGSTNYKYYADSVKGRFTISRDNAKNTVYLQMNSLKPDDTAVYYCAASTVLTDPRVPTEYDYWGQGTQVTVSS
B14: 01G08R3LS His-tagged VHH (VHH)
VHH: QVQLVESGGGLVQAGDSLRLSCAASGRTFTTYGMGWFRQGPGKEREFVATITWSGSTNYKYYTDSVKGRFTISRDNAKNTVYLQMNSLKPEDTAVYYCAASTVLTDPRRLNEYDYWGQGTQVTVSS
B15: 03A08R3 His-tagged VHH (VHH)
VHH: QVQLVESGGGLVQAGGSLRLSCAASGRTSSIYGMGWFRQAPGKEREFVAAISWSAGRTYHADSVKGRFTISRDNAKNMVYLQMDKMKPGDTAVYYCAARRAPELLSDYTQKPEEIGTYHYWGQGTLVTVSS
B16: 01C01R2L His-tagged VHH (VHH)
VHH: QVQLVESGGGLVQAGGSLRLSCAASGRTLRSYIVGWFRQAPGKEREFVAAVTWSDGRRVTADPVKGRFTISRDNAKNTVYLQMDSLKPEDAAVYYCAVSRGGAYEYSRAYEYWGQGTLVTVSS
B17: 01A09R2 His-tagged VHH (VHH)
VHH: EVQLVESGGGLVQAGGSLRLSCAASGRTFSSNPMGWFRQAPGKEREFVAAISWSGGGTYYADSVKGRFTISRDNAKNTVTLQMNSLKPEDTAVYYCASRDYSDPISLWVEDREYDYWGQGTQVTVSS
B18: 02H11R3 His-tagged VHH (VHH)
VHH: EVQLVESGGGSVQAGGSLRLSCAASGRTFSNYAMGWFRQAPGKEREFVAGISRSGGSTYSADSVKGRFTISRDNAKNTVYLQMNSLKPEDTAVYYCAADGLDYALGFRGDYWGQGTQVTVSS
B19: 02D06R3 His-tagged VHH (VHH)
VHH: QVQLVESGGGLVQPGGRLRLSCAASGSIFSIRDMAWYRQAPGKQREWVAIAARGGSTHYADSVKGRFTISRDNAKNTVYLQMNTLEPEDTAAYYCNAEVATMIQPGFRDYWGQGTQVTVSS
B20: 02G06R3 His-tagged VHH (VHH)
VHH: EVQLVESGGGLVQAGGSLRLSCAASGRTFDSYAMGWFRQAPGKEREFVAAISWTGGSTDYADSVKGRFTISRDNAKNTVYLQMDSLKPEDTAVYYCAAEVVGRDVTTMYRVSGLEYEYDYWGQGTQVTVSS
B21: 01G02R2LS His-tagged VHH (VHH)
VHH: QVQLVESGGGLVQAGDSLALSCAGSGDTFSNYAMGWFRQAPGKEREFVADISWYGANIGYADSVKGRFTISRDNAKNMVTLRMNSLKPEDTAVYYCAADRNHWPVKGDYWGQGTQVTVSS
B22: 01A01R3 His-tagged VHH (VHH)
VHH: EVQLVESGGGLVQAGGSLRLSCAASGSGRTFTSYTMGWFRQAPGKEREFVSALTWADDSTYYKYYADSMKGRLTISRDNAKNTVYLQMNSLKPEDTAVYYCVATGRGLTYDPRDRRKYDYWGQGTQVTVSS
B23: 02G04R3 His-tagged VHH (VHH)
VHH: QVQLVESGGGLVQAGGSLRLSCAANGRAANAYAVGWFRQAPGKEREFVAHIRWNGGRTAYADSVKGRFTISRDDAKNTVYLQMDSLKPEDTAVYYCAEDTNPDAFGDLRLPSEYEYWGQGTQVTVSS

Target: T1, recombinant human pIgR (hpIgR) (human, UniProt P01833 19-638, limits assumed)
T1 construct: probably the ECD
Test: ELISA, periplasmic VHH, BSA subtracted
Protocol: Initial Library Screening: After each panning round showing enrichment, 94 individual clones were expressed and tested in an off-phage initial screen for specific binding to mpIgR or hpIgR (respectively depending on the antigen used). Screening of monoclones in an off-phage format was performed by transforming the phagemid pool into a non-amber-suppressor strain of E. coli and picking random colonies. The VHH proteins were recovered in the periplasmic fraction by performing osmotic shock. Periplasmic fractions containing His-tagged nanobodies were tested for binding to hpIgR or mpIgR. Bound nanobody was detected with a polyclonal anti-alpaca VHH domain antibody. Each clone was also tested for non-specific binding to BSA in parallel. The ELISA values obtained on BSA were subtracted from the ELISA values obtained on the respective pIgR antigen.
Repeat Testing of Positive Hits: The hits identified in the initial screen of the phage pools were re-tested for binding to either hpIgR or mpIgR. Periplasmic fractions were prepared again by performing osmotic shock. Periplasmic fractions containing His-tagged nanobodies were tested for binding to mpIgR. In this assay, bound nanobody was detected with an anti-VHH antibody. Each clone was also tested for non-specific binding to BSA in parallel. The ELISA values obtained on BSA were subtracted from the ELISA values obtained on the respective pIgR antigen.

T1 sequence (P01833 19-638 limits assumed): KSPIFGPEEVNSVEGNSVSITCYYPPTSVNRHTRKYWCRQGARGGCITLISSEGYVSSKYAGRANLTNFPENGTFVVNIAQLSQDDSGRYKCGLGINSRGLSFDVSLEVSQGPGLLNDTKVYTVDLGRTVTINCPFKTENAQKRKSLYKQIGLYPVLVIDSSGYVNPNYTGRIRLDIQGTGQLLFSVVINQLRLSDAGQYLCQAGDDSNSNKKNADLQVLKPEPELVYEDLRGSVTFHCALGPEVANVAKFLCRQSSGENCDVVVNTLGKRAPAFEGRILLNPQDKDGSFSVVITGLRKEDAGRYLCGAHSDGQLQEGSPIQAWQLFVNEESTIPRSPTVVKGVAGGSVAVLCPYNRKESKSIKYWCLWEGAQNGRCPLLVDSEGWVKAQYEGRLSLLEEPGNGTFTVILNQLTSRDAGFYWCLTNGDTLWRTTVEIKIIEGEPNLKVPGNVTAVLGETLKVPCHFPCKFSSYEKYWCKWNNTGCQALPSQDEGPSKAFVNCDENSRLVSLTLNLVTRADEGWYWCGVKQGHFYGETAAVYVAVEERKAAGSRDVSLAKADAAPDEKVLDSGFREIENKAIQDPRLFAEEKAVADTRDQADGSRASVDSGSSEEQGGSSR

Going from B1 to B2, the ELISA (OD) rises from 0.82 OD to 2 OD.

Compared with B3, B4 is higher in ELISA (OD): 0.44 OD for the first, 2.03 OD for the second.

Compared with B5, B6 is higher in ELISA (OD): 1.77 OD for the first, 2.4 OD for the second.

B7 and B8 are the same in ELISA (OD): 2.01 OD for the first, 2.01 OD for the second.

First: B9
Second: B10
The ELISA (OD) of the first is higher: 2.04 OD for the first, 0.43 OD for the second.

Compared with B11, B12 is higher in ELISA (OD): 1.54 OD for the first, 1.87 OD for the second.

Going from B13 to B14, the ELISA (OD) rises from 1.98 OD to 2.41 OD.

Compared with B15, B16 is lower in ELISA (OD): 2.1 OD for the first, 1.97 OD for the second.

First: B17
Second: B18
The ELISA (OD) of the first is lower: 1.86 OD for the first, 1.97 OD for the second.

First: B19
Second: B20
The ELISA (OD) of the first is higher: 2.16 OD for the first, 1.8 OD for the second.

First: B21
Second: B22
The ELISA (OD) of the first is higher: 1.62 OD for the first, 0.91 OD for the second.

With B23 the “ELISA (OD)” value was 0.93 OD.

Source: patent US20220112276A1 (Janssen / Centocor, published 2022)
